According to paper PMC10359466, “Identification of a small-molecule inhibitor that selectively blocks DNA-binding by Trypanosoma brucei replication protein A1” (Nature Communications, 2023):
pKd: −log10 of the molar value. Where two headings read alike, the source gives them in different places.

What was measured:
[1] = biological target: ATRIP peptide (Homo sapiens) (UniProt Q8WXE1); settings: cited from earlier work
[2] = biological target: ATRIP peptide (Homo sapiens) (UniProt Q8WXE1); settings: cited from earlier work; remark: listed apart in the source
[3] = biological target: T1, TbRPA1 DBD-AB (Trypanosoma brucei) (UniProt Q384B5); test: MST; settings: 20 mM Tris pH 7.5, 10 mM NaCl, 10 mM MgCl2, 2 mM DTT, 10% glycerol, 0.1 mg/ml BSA, 15 min, room temperature; EMSA 2 nM probe (gel at 4 C), MST 10 nM probe
T1 sequence: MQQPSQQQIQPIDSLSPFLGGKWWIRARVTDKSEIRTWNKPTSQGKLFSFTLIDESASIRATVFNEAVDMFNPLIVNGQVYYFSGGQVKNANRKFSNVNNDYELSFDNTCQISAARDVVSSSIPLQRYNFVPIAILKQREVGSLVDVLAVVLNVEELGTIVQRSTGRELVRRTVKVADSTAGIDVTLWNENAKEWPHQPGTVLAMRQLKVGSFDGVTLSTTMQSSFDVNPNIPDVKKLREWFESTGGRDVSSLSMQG

[4] = biological target: TbRPA complex: 6xHis-RPA1;TbRPA2;TbRPA3 (Trypanosoma brucei;Trypanosoma brucei;Trypanosoma brucei) (UniProt Q384B5); test: MST; settings: 20 mM Tris pH 7.5, 10 mM NaCl, 10 mM MgCl2, 2 mM DTT, 10% glycerol, 0.1 mg/ml BSA, 15 min, room temperature, EMSA 2 nM probe (gel at 4 C), MST 10 nM probe

ATRIP peptide (Homo sapiens), sequence (Q8WXE1 whole entry): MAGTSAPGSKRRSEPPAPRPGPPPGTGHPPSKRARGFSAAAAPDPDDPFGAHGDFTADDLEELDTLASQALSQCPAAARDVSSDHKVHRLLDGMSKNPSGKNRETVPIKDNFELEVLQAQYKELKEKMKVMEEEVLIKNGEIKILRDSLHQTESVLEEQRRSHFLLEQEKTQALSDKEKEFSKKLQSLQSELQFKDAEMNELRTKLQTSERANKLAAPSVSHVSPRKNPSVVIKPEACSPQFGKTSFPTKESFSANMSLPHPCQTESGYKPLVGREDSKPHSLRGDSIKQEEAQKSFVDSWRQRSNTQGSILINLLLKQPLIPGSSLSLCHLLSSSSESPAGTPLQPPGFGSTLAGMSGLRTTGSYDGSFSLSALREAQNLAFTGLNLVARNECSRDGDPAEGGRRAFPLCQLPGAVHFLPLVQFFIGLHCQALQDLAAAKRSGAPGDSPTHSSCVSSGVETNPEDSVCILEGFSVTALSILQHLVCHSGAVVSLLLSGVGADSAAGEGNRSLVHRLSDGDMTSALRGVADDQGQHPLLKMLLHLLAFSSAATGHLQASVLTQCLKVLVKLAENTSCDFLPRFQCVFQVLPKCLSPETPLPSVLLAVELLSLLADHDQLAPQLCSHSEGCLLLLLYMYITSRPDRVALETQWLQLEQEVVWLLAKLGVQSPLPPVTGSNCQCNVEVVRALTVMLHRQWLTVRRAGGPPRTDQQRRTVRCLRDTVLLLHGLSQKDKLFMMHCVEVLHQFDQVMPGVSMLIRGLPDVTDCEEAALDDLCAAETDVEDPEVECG
RPA1 DBD-AB DBD-AB, sequence (P27694 181-422): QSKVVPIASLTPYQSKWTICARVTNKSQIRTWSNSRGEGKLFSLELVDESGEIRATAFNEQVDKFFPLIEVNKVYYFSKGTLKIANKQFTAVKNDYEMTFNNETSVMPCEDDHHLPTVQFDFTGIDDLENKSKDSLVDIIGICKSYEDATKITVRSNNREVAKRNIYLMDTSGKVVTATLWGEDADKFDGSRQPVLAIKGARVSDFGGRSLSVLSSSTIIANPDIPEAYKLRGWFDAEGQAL
RPA1 DBD-F DBD-F, sequence (P27694 1-120): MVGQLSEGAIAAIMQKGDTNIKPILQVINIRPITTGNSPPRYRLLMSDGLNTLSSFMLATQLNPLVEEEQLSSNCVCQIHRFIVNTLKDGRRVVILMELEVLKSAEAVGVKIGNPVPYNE

Question: With “RPA1 DBD-AB DBD-AB (from UniProt P27694)” as the substance, how does the pKd [1] read?
Answer: 4.92

Question: With RPA1 DBD-F DBD-F (from UniProt P27694) as the substance, how does the pKd [2] read?
Answer: 5.13

Question: With TTTTTTTTTTTT [dT12] as the substance, how does the pKd [3] read?
Answer: 7.22

Question: With TTTTTTTTTTTTTTTTTTTT [dT20] as the substance, how does the pKd ([4]; 17.2 nM in peer review file) read?
Answer: 7.77

Question: With TTTTTTTTTTTTTTTTTTTTTTTTTTTTTTTT [dT32] as the substance, how does the pKd [4] read?
Answer: 7.88

Question: And the pKd ([4]; second measurement, with S105T / length series)?
Answer: 7.81
